According to the RNAGym collection of RNA variant scans (doi:10.1073/pnas.2313332121):
Fewer inactive variants are shown than the library holds.

B1: TPR 5TU (parent)
chain: GGAUCUUCUCGAUCUAACAAAAAAGACAAAUCUGCCACAAAGCUUGAGAGCAUCUUCGGAUGCAGAGGCGGCAGCCUUCGGUGGCGCGAUAGCGCCAACGUUCUCAACUAUGACACGCAAAACGCGUGCUCCGUUGAAUGGAGUUUAUCAUG

Variants of: B1
Assay: polymerase ribozyme fitness, log enrichment relative to wild type (log ratio); higher = more active; in vitro selection for triplet polymerase activity
Procedure, shortened: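 Fitness is a logarithmic measure of how a genotype enriched relative to the wild type, with replicate averages weighted by inverse variance. The logarithm uses base 2, and enrichment came from Illumina sequencing of input and output libraries. Those libraries were PCR-built, transcribed mutants of each subunit of a heterodimeric triplet polymerase ribozyme, passed through one triplicate in vitro selection round that included frozen incubation at −7 °C, gel excision of extended constructs and streptavidin-bead capture. Genotypes were kept only if they had ≥10 input reads and ≥1 read per output.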

Variant | polymerase ribozyme fitness (log ratio)
GGAUCUUCUCGAUCUAACAAAAAAGACAAAUCUGCCACAAAGCUUGAGAGCAUCUUCGGAUGCAGAGGCGGCAGCCUUCGGUGGCGCGAUAGCGCCAACGUUCUCAACUAUGACACGCAAAACGCGUGCUCCGUUGAAUGGGGUUCAUCAUG | -3.25
GGAUCUUCUCGAUCUAACAAAAAAGACAAAUCUGCCACAAAGCUUGAGAGCAUCUUCGGAUGCAGAGGCGGCAGCCUUCGGUGGCGCGAUAGCGCCAACGUUCUCAACUAUGACACGCAAAACGCGUGCUCCGUUGAAUGGCGAUUAGCAUG | ≤ -4.2
GGAUCUUCUCGAUCUAACAAAAAAGACAAAUCUGCCACAAAGCUUGAGAGCAUCUUCGGAUGCAGAGGCGGCAGCCUUCGGUGGCGCGAUAGCGCCAACGUUCUCAACUAUGACACGCAAAACGCGUGCUCCGUUGAAUGGAGCUUAUCCUG | -4.19
GGAUCUUCUCGAUCUAACAAAAAAGACAAAUCUGCCACAAAGCUUGAGAGCAUCUUCGGAUGCAGAGGCGGCAGCCUUCGGUGGCGCGAUAGCGCCAACGUUCUCAACUAUGACACGCAAAACGCGUGCUCCGUUGAAUGGAGGAUAUCAUG | 0.571
GGAUCUUCUCGAUCUAACAAAAAAGACAAAUCUGCCACAAAGCUUGAGAGCAUCUUCGGAUGCAGAGGCGGCAGCCUUCGGUGGCGCGAUAGCGCCAACGUUCUCAACUAUGACACGCAAAACGCGUGCUCCGUUGAAUGGAGUUGAUCGUA | -1.84
GGAUCUUCUCGAUCUAACAAAAAAGACAAAUCUGCCACAAAGCUUGAGAGCAUCUUCGGAUGCAGAGGCGGCAGCCUUCGGUGGCGCGAUAGCGCCAACGUUCUCAACUAUGACACGCAAAACGCGUGCUCCGUUGAAUGGAGUUGAUCCUG | ≤ -4.2
GGAUCUUCUCGAUCUAACAAAAAAGACAAAUCUGCCACAAAGCUUGAGAGCAUCUUCGGAUGCAGAGGCGGCAGCCUUCGGUGGCGCGAUAGCGCCAACGUUCUCAACUAUGACACGCAAAACGCGUGCUCCGUUGAAUGGAGUUGAUCAUG | -0.513
GGAUCUUCUCGAUCUAACAAAAAAGACAAAUCUGCCACAAAGCUUGAGAGCAUCUUCGGAUGCAGAGGCGGCAGCCUUCGGUGGCGCGAUAGCGCCAACGUUCUCAACUAUGACACGCAAAACGCGUGCUCCGUUGAAUGGAGUUAAUCAUG | -0.305
GGAUCUUCUCGAUCUAACAAAAAAGACAAAUCUGCCACAAAGCUUGAGAGCAUCUUCGGAUGCAGAGGCGGCAGCCUUCGGUGGCGCGAUAGCGCCAACGUUCUCAACUAUGACACGCAAAACGCGUGCUCCGUUGAAUGGAGUUCAUCAUG | 0.00807
GGAUCUUCUCGAUCUAACAAAAAAGACAAAUCUGCCACAAAGCUUGAGAGCAUCUUCGGAUGCAGAGGCGGCAGCCUUCGGUGGCGCGAUAGCGCCAACGUUCUCAACUAUGACACGCAAAACGCGUGCUCCGUUGAAUGUAGUUUAUCAUG | 1.61
GGAUCUUCUCGAUCUAACAAAAAAGACAAAUCUGCCACAAAGCUUGAGAGCAUCUUCGGAUGCAGAGGCGGCAGCCUUCGGUGGCGCGAUAGCGCCAACGUUCUCAACUAUGACACGCAAAACGCGUGCUCCGUUGAAUGGGGUUUUUCAUG | -0.49
GGAUCUUCUCGAUCUAACAAAAAAGACAAAUCUGCCACAAAGCUUGAGAGCAUCUUCGGAUGCAGAGGCGGCAGCCUUCGGUGGCGCGAUAGCGCCAACGUUCUCAACUAUGACACGCAAAACGCGUGCUCCGUUGAAUGGAGUUUAGCAAG | -3.95
GGAUCUUCUCGAUCUAACAAAAAAGACAAAUCUGCCACAAAGCUUGAGAGCAUCUUCGGAUGCAGAGGCGGCAGCCUUCGGUGGCGCGAUAGCGCCAACGUUCUCAACUAUGACACGCAAAACGCGUGCUCCGUUGAAUGGACUGUAUCAUG | -1.8
GGAUCUUCUCGAUCUAACAAAAAAGACAAAUCUGCCACAAAGCUUGAGAGCAUCUUCGGAUGCAGAGGCGGCAGCCUUCGGUGGCGCGAUAGCGCCAACGUUCUCAACUAUGACACGCAAAACGCGUGCUCCGUUGAAUGUAAUUUAUCAUG | -2.79
GGAUCUUCUCGAUCUAACAAAAAAGACAAAUCUGCCACAAAGCUUGAGAGCAUCUUCGGAUGCAGAGGCGGCAGCCUUCGGUGGCGCGAUAGCGCCAACGUUCUCAACUAUGACACGCAAAACGCGUGCUCCGUUGAAUGUCGUUUAUCAUG | -3.58
GGAUCUUCUCGAUCUAACAAAAAAGACAAAUCUGCCACAAAGCUUGAGAGCAUCUUCGGAUGCAGAGGCGGCAGCCUUCGGUGGCGCGAUAGCGCCAACGUUCUCAACUAUGACACGCAAAACGCGUGCUCCGUUGAAUGGAGUCGAUCAUG | 0.121
GGAUCUUCUCGAUCUAACAAAAAAGACAAAUCUGCCACAAAGCUUGAGAGCAUCUUCGGAUGCAGAGGCGGCAGCCUUCGGUGGCGCGAUAGCGCCAACGUUCUCAACUAUGACACGCAAAACGCGUGCUCCGUUGAAUGGAGUGUAUCAGG | -4.07
GGAUCUUCUCGAUCUAACAAAAAAGACAAAUCUGCCACAAAGCUUGAGAGCAUCUUCGGAUGCAGAGGCGGCAGCCUUCGGUGGCGCGAUAGCGCCAACGUUCUCAACUAUGACACGCAAAACGCGUGCUCCGUUGAAUGCAGUUUAUCGUG | -3.78
GGAUCUUCUCGAUCUAACAAAAAAGACAAAUCUGCCACAAAGCUUGAGAGCAUCUUCGGAUGCAGAGGCGGCAGCCUUCGGUGGCGCGAUAGCGCCAACGUUCUCAACUAUGACACGCAAAACGCGUGCUCCGUUGAAUGGAAUUUAUCAGG | ≤ -4.2
